The record followed here is PMC9287160 (2022).

By Kd is commonly meant the concentration at which binding is half-saturated. Broadly, the koff is a measure of how fast the partners let go of each other.

What all share (assay): BLI
For orientation: Biolayer interferometry detects binding as a change in optical thickness at a sensor tip.

The target in assay [1] is T1, recombinant human αMβ2 αI domain (human).
T1 chain: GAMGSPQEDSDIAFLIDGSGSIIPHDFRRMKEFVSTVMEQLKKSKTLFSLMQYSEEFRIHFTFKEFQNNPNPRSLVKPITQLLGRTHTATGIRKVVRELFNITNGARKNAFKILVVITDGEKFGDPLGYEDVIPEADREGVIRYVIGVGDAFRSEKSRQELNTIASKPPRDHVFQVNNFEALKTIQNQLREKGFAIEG

Assay [2] addresses T2, human integrin αMβ2 headpiece fragment (human, UniProt P11215 17-1152; P05107 23-482).
Assay [3] deals with T1, recombinant human αMβ2 αI domain.
In assay [4] the target is T2, human integrin αMβ2 headpiece fragment. The source holds these as a separate data set.

B1: biotinylated avi-tagged hCD11bNb1 (VHH)
VHH: QVQLVETGGGLVQAGGSLRLSCAASGNINSFNAMGWFRQAPGKQRELVAAITFGGRTNYADSVKGRFTISRDNTKGSVYLQMNSLKPEDTAVYYCAASENNLLTGVWHYWGRGTQVTVSS
modifications: biotin
Consider B1, for which the Kd is 6.6 nM in assay [1] and 0.85 nM in assay [2]. The figures for the off-rate (koff) in assay [3] and in assay [4] were 0.0032 s⁻¹ and 0.00047 s⁻¹, respectively.
